# Data from US10975142B2, “Endotrophin neutralization and use thereof” (THE BOARD OF REGENTS OF THE UNIVERSITY OF TEXAS SYSTEM, priority 2013, dated 2021).
# B1: 10B6: rat anti-mouse endotrophin monoclonal antibody; light chain variable SEQ ID NO: 2, heavy chain variable SEQ ID NO: 4 (antibody, V domains shown)
# VH: QVQLQQSGPELAKPGSSVKISCKASGYTFTSYEMHWIKQRPGQGLEWIGYIYPESGSTGYNEKFKGKATLTVDKSSPTAYMQLSSLTPDNSAVYFCTRGLRVLGYVMDVWGHGTSVTVSS
# VL: DVQLTQSPSFLSASVGDRVTINCKASQNINKYLNWYQQKLGEAPKRLIYNTNNLQTGIPSRFSGSASGTDYTLTISSLHPEDFATYFCLQHSSLYTFGAGTKLELK
# System: diet induced obese (DIO) mice
# Test: diet induced obese mice, hyperinsulinemic-euglycemic clamp
# Format: in vivo
# Details: 10B6 100 μg/mouse vs IgG
# Description: FIGS. 24A-24D: Endotrophin neutralization improves the metabolic phenotype. FIG. 24A. Two cohorts of mice (n=8) were exposed to high fat diet for 45 days after weaning. At the indicated time points (arrowheads), mice were treated with anti-endotrophin monoclonal antibodies (100 μg/mouse) or equivalent amounts of non-immune antibody. Body weights were monitored. FIG. 24B. Glucose infusion rate and FIG. 24C. Suppression of hepatic glucose efflux was measured in a hyperinsulinemic euglycemic clamp. FIG. 24D. Table of parameters measured prior and during the clamp. Significant differences as indicated by unpaired student t-test.
# To evaluate the therapeutic potential of endotrophin neutralizing monoclonal antibodies on metabolic perspectives, diet induced obese (DIO) mice were chronically treated with either IgG control or 10B6 (rat anti-mouse endotrophin monoclonal antibody) via intraperitoneal injection at 2 weeks after high-fat diet (HFD) challenge and maintained them on a HFD with antibody treatment for another 4 weeks. […] Strikingly, 10B6 treated DIO mice improved whole-body insulin sensitivity, as determined by the amount of glucose required to maintain euglycemia (FIG. 24B) and by the amount of suppression of hepatic glucose efflux (FIGS. 24C and D).
molecule,measurement,value
B1,"whole-body insulin sensitivity (glucose required to maintain euglycemia, suppression of hepatic glucose efflux)",improved
